Experiments:
[1] = molecular target: human recombinant HER2 protein (extracellular domain Thr23-Thr652 of human ERBB2 with His tag) (human) (UniProt P04626); assay: SEC-MALS
[2] = molecular target: human recombinant HER2 protein (extracellular domain Thr23-Thr652 of human ERBB2 with His tag) (human) (UniProt P04626); assay: SEC

“trastuzumab stressed at 45°C for 10 days (45C10d) (antibody)” gave a percent of antibody unbound (mixed 1:1) [1] of 40% and a percent of antibody unbound (mixed 1:1) [2] of 40%.

Source: paper PMC7899689
